Reference: patent US20070160576A1, “IL-17A/F heterologous polypeptides and therapeutic uses thereof” (Genentech, Inc., priority 2001, published 2007)
Entries after “also recorded” stand apart in the source; their conditions may differ. Where two headings read alike, the source gives them in different places.

T1: PRO5801 (human IL-17RH1 receptor) (Homo sapiens, UniProt Q9NRM6)
T1 sequence (Q9NRM6 18-502): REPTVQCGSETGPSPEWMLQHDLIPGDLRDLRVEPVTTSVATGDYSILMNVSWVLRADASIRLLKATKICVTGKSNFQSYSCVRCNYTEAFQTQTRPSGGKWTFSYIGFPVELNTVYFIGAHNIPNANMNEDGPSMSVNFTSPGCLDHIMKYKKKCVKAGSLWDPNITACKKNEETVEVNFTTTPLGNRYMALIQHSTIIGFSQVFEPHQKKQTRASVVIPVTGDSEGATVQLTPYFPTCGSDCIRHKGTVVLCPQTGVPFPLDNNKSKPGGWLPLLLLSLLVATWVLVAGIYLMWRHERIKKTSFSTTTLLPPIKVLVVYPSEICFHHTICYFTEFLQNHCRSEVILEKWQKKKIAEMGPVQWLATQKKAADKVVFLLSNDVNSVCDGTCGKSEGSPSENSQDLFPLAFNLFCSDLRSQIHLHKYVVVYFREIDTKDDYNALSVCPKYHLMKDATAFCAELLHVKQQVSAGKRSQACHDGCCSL

T2: PRO20040 (human IL-17RH2 receptor) (Homo sapiens, UniProt Q8NAC3)
T2 sequence (Q8NAC3 21-791): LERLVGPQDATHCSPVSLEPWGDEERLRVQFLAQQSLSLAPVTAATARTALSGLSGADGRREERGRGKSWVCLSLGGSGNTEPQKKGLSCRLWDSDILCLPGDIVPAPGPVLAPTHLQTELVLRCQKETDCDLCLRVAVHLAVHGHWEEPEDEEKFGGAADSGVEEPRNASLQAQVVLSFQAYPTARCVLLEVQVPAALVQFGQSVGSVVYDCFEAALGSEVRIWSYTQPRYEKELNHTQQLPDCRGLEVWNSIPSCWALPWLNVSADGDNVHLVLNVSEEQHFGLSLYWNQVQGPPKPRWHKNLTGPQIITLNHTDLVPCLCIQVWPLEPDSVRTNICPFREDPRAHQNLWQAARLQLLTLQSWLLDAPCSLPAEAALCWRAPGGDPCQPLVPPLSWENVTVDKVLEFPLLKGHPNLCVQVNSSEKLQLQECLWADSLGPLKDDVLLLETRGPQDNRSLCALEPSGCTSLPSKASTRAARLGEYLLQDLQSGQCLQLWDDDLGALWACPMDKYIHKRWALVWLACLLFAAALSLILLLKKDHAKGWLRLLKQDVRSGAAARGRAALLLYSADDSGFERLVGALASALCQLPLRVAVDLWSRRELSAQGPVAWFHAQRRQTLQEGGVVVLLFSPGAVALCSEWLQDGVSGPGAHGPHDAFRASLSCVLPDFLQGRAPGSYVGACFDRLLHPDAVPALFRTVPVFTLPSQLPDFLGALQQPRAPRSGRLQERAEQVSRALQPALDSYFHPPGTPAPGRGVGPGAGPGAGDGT

B1: PRO21175 (IL-17D ligand) (ligand, UniProt Q8TAD2 16-202, looked up)
chain: AGAPRAGRRPARPRGCADRPEELLEQLYGRLAAGVLSAFHHTLQLGPREQARNASCPAGGRPADRRFRPPTNLRSVSPWAYRISYDPARYPRYLPEAYCLCRGCLTGLFGEEDVRFRSAPVYMPTVVLRRTPACAGGRSVYTEAYVTIPVGCTCVPEPEKDADSINSSIDKQGAKLLLGPNDAPAGP
B2: PRO1122 (IL-17C ligand) (ligand, UniProt Q9P0M4 19-197, looked up)
chain: HHDPSLRGHPHSHGTPHCYSAEELPLGQAPPHLLARGAKWGQALPVALVSSLEAASHRGRHERPSATTQCPVLRPEEVLEADTHQRSISPWRYRVDTDEDRYPQKLAFAECLCRGCIDARTGRETAALNSVRLLQSLLVLRRRPCSRDGSGLPTPGAFAFHTEFIHVPVGCTCVLPRSV
B3: IL-17F: human IL-17F ligand, SEQ ID NO:4 (protein, listed as Homo sapiens)
chain: MTVKTLHGPAMVKYLLLSILGLAFLSEAAARKIPKVGHTFFQKPESCPPVPGGSMKLDIGIINENQRVSMSRNIESRSTSPWNYTVTWDPNRYPSEVVQAQCRNLGCINAQGKEDISMNSVPIQQETLVVRRKHQGCSVSFQLEKVLVTVGCTCVTPVIHHVQ

Tests used:
Experiment in all cases: Receptor/ligand interaction screening assay (immunoadhesin)
Assay type in all cases: binding
[1] = biological target: T1, PRO5801 (human IL-17RH1 receptor)
Description: (§1) In general, the assay is performed as follows. A PRO polypeptide of the present invention suspected of being a ligand for a receptor is expressed as a fusion protein containing the Fc domain of human IgG (an immunoadhesin). Receptor-ligand binding is detected by allowing interaction of the immunoadhesin polypeptide with cells (e.g. Cos cells) expressing candidate PRO polypeptide receptors and visualization of bound immunoadhesin with fluorescent reagents directed toward the Fc fusion domain and examination by microscope. Cells expressing candidate receptors are produced by transient transfection, in parallel, of defined subsets of a library of cDNA expression vectors encoding PRO polypeptides that may function as receptor molecules. Cells are then incubated for 1 hour in the presence of the PRO polypeptide immunoadhesin being tested for possible receptor binding. The cells are then washed and fixed with paraformaldehyde. The cells are then incubated with fluorescent conjugated antibody directed against the Fc portion of the PRO polypeptide immunoadhesin (e.g. FITC conjugated goat anti-human-Fc antibody). The cells are then washed again and examined by microscope. A positive interaction is judged by the presence of fluorescent labeling of cells transfected with cDNA encoding a particular PRO polypeptide receptor or pool of receptors and an absence of similar fluorescent labeling of similarly prepared cells that have been transfected with other cDNA or pools of cDNA. If a defined pool of cDNA expression vectors is judged to be positive for interaction with a PRO polypeptide immunoadhesin, the individual cDNA species that comprise the pool are tested individually (the pool is “broken down”) to determine the specific cDNA that encodes a receptor able to interact with the PRO polypeptide immunoadhesin.
(§2) In another embodiment of this assay, an epitope-tagged potential ligand PRO polypeptide (e.g., 8 histidine “His” tag) is allowed to interact with a panel of potential receptor PRO polypeptide molecules that have been expressed as fusions with the Fc domain of human IgG (immunoadhesins). Following a 1 hour co-incubation with the epitope tagged PRO polypeptide, the candidate receptors are each immunoprecipitated with protein A beads and the beads are washed. Potential ligand interaction is determined by Western blot analysis of the immunoprecipitated complexes with antibody directed towards the epitope tag. An interaction is judged to occur if a band of the anticipated molecular weight of the epitope tagged protein is observed in the Western blot analysis with a candidate receptor, but is not observed to occur with the other members of the panel of potential receptors.

[2] = biological target: human IL-17 receptor (IL-17R, PRO1) (Homo sapiens, UniProt Q96F46)
Description: as §1, §2

[3] = biological target: T2, PRO20040 (human IL-17RH2 receptor)
Description: as §1, §2

| Molecule | binding to IL-17RH1 receptor (PRO5801) [1] | binding to human IL-17 receptor (IL-17R, PRO1) [2] | binding to IL-17RH2 receptor (PRO20040) [3] | binding to human IL-17 receptor (IL-17R, PRO1) ([2]; listed as PRO1122) | binding to IL-17RH2 receptor (PRO20040) ([3]; listed as PRO20110) |
| --- | --- | --- | --- | --- | --- |
| B1 | do not interact | do not interact | do not interact |  |  |
| B2 | do not interact | do not interact | do not interact | do not bind |  |
| B3 |  | binds to | has been shown to bind; also recorded: binds to |  | binds to |
